Source: patent US20210070833A1 (GI INNOVATION, published 2021)

What was measured:
mouse IgE = molecular target: T1, mouse IgE (mouse, UniProt P06336 1-421); assay: cell-based or functional assay
T1 heavy (looked up): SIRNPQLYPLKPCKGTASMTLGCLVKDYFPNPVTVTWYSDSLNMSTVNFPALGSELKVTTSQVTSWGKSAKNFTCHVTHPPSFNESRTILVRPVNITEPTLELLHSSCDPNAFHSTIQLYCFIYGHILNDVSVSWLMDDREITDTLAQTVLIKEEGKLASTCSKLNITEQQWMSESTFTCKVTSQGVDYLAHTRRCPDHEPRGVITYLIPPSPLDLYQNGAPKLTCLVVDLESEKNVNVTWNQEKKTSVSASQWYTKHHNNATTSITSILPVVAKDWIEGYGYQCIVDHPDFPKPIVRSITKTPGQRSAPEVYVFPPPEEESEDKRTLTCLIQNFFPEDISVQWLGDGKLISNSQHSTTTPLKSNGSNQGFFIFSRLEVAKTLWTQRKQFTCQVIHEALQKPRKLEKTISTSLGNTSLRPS

FcγRI = molecular target: T2, FcγRI; assay: BLI (Octet RED384), FcγRI immobilised on AR2G biosensor, IgETRAP 0.25-4 µM in solution
T2 construct: not in the MOLECULES list; also called IgG receptor FcγRI; Fc gamma receptor I
T2 chain: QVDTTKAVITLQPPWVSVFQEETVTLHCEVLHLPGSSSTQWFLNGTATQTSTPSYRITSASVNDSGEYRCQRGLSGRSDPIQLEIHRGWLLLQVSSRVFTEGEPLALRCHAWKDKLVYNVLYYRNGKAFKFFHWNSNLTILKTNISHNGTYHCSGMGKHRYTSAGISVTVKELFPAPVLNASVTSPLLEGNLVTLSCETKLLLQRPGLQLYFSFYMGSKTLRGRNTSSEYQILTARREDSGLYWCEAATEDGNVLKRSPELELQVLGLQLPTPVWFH
Description: FcγRI, FcγRIIA, FcγRIIB, FcγRIIIA, and FcγRIIIB recombinant proteins (R & D Systems Inc., 5 μg/ml) were immobilized in 300 mM acetate buffer (pH 5) on the activated AR2G biosensor. As a running buffer, PBS containing 0.1% Tween-20 and 1% bovine serum was used. All experiments were carried out at 30° C. with a sample plate shaker at a rate of 1,000 rpm.

human IgE = molecular target: T3, human IgE (human, UniProt P01854-1 1-428); assay: cell-based or functional assay
T3 heavy (looked up): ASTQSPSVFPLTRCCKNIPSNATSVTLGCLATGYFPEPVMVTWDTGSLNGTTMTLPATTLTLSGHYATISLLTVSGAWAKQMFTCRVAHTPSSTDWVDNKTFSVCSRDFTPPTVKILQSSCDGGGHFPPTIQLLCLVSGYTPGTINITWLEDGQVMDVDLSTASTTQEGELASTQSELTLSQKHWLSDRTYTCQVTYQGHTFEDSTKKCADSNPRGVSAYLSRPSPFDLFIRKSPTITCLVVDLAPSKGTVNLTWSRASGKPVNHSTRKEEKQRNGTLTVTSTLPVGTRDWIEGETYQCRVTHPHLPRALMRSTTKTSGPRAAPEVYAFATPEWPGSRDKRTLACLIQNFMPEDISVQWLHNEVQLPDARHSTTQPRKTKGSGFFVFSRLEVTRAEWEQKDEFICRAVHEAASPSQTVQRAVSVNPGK

IgE = molecular target: T4, IgE; assay: SPR (ProteOn XPR36), KD against omalizumab as reference; the same paragraph ties 69-fold to FcεRIαECD-Fc2ST
T4 construct: also called immunoglobulin E
Description: The experiments were conducted by identifying zero base using 25 mM NaOH as a regeneration buffer, and then repeating the above steps. Thereafter, a binding curve was identified using a protein binding analyzer (ProteOn XPR36, Bio-Rad Laboratories, Inc., USA).

B1: FcεRIαECD-Fc2 (Fc fusion)
chain: VPQKPKVSLNPPWNRIFKGENVTLTCNGNNFFEVSSTKWFHNGSLSEETNSSLNIVNAKFEDSGEYKCQHQQVNESEPVYLEVFSDWLLLQASAEVVMEGQPLFLRCHGWRNWDVYKVIYYKDGEALKYWYENHNISITNATVEDSGTYYCTGKVWQLDYESEPLNITVIKAPREKYWLQRNTGRGGEEKKGSKEKEEQEERETKTPECPSHTQPLGVFLFPPKPKDTLMISRTPEVTCVVVDVSQEDPEVQFNWYVDGVEVHNAKTKPREEQFNSTYRVVSVLTVLHQDWLNGKEYKCKVSNKGLPSSIEKTISKAKGQPREPQVYTLPPSQEEMTKNQVSLTCLVKGFYPSDIAVEWESNGQPENNYKTTPPVLDSDGSFFLYSRLTVDKSRWQEGNVFSCSVMHEALHNHYTQKSLSLSLGK
- mast cell inhibition ratio (β-hexosaminidase release, mouse bone marrow-derived mast cells) at 0.5 ug/mL (mouse IgE): ~49.4%
- mast cell inhibition ratio (β-hexosaminidase release, mouse bone marrow-derived mast cells) at 1 ug/mL (mouse IgE): ~99.4%

B2: FcεRIαECD-Fc2ST (Fc fusion)
chain: B1 chain
modifications: sialic acid added (co-expressed with α-2,6-sialic acid transferase)
notes: also called IgETRAP; FcεRIαECD-Fc2 + a2,6-ST
- binding result (FcγRI): no binding (tested: 4 µM)
- IC50 of mast cell inhibition (β-hexosaminidase release, human FcεRI-expressing mouse bone marrow-derived mast cells) (human IgE): ~0.0112 µg/mL
- inhibitory ability on mast cell activity, fold against Xolair (human IgE): 58 fold
- fold difference of KD against omalizumab (printed as 'higher') (IgE): 22 to 69 fold
